Reference: article PMC6733935, “A convenient and efficient total solid-phase synthesis of DOTA-functionalized tumor-targeting peptides for PET imaging of cancer” (EJNMMI Research, 2019)
Numbered stars: 1 amine (or outer) side, 2 acyl side, 3 side chain; on linkers, the order of the positions; unused ones are H or OH. Square brackets hold non-standard residues; d marks the D form. Peptide text beside a SMILES is read from it. * marks the point of attachment. DOTA = O=C(O)CN1CCN(CC(=O)O)CCN(CC(=O)*)CCN(CC(=O)O)CC1; Cha = N[C@@H](CC1CCCCC1)C(=O)O; X1 = O=C(CCC(=O)[*:2])CN[*:1]; 4Abz = Nc1ccc(C(=O)O)cc1; Nle = CCCC[C@H](N)C(=O)O; Ahx = NCCCCCC(=O)O

Legend:
[1] = Radio-HPLC retention time as reflection of lipophilicity; type: physicochemical; conditions: chromatographic, econosphere C18 (10 μm, 250 × 4.6 mm), 0.1% TFA water/acetonitrile, 5 to 95% B over 30 min, 1.1 mL/min; radio detection; used as reflection of lipophilicity
Experimental: The HPLC analysis and purification of the peptides were performed on a Shimadzu HPLC system using econosphere C18 reversed-phase column (10 μm, 250 × 4.6 mm). For all HPLC experiments, a gradient system of 0.1% (v/v) TFA in water (solvent A) and 0.1% (v/v) TFA in acetonitrile (solvent B) at a flow rate of 1.1 mL/min was used. The HPLC gradient began with a solvent composition of 95% A and 5% B from 0 to 2.5 min followed by a linear gradient of 95% A and 5% B to 5% A and 95% B over 30 min. The gradient remained at this position for 3 min before switching back to 95% A and 5% B for another 7 min. The major peak isolated and the acetonitrile was then slowly evaporated under a stream of nitrogen gas. Radiochemical purity was estimated by evaluating radioactivity peaks eluted for each ^68Ga-labeled peptide from the HPLC column and calculating the area under the peak (ROI). The main peak of each radiopeptide was isolated and reconstituted in sterile saline for in vitro and in vivo experiments. Radiolabeling of DOTA-coupled BN peptides with ^68Ga was accomplished simply by mixing ~ 20 μg BN peptide with sodium acetate buffer and ^68GaCl3 followed by heating to complete the labeling reaction. By this facile method, a high and reproducible radiolabeling of peptides with ^68Ga was achieved (up to 95%), with a specific radioactivity of greater than 250 Ci/mmol. […] A radiolabeling efficiency of greater than 90% was obtained in all cases, and it ranged between 90 and 95%. […] RP-HPLC retention times of the major peaks, ranging from 18.3 to 20.3 min, reflected slightly variable lipophilicity of these ^68Ga-complexes (Table 1).

in vivo = type: in vivo, nude mice; conditions: female, nude, mouse, in vivo, total radioactivity; for dose excreted at 1 h / dose excreted at 2 h: Radioactivity in Urine + bladder
Summary of the method: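 Female mice bore subcutaneous left-thigh xenografts of ~5 million MDA-MB-231 cells in PBS, grown 4-6 weeks to 200-300 mg. Animals received 20-30 μCi of 68Ga-labelled peptide and were sacrificed at set time points; tumour and organ uptake measured by γ-counting.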

[2] = molecular target: T1, BN/GRP receptor-positive MDA-MB-231 human breast cancer cells (Homo sapiens, UniProt P30550); test: Saturation binding assay on MDA-MB-231 cells; conditions: n = 3-5 experiments; for Bmax (apparent number of binding sites per cell): SD < 15%; for Kd: ~300,000 cells, 0.1-25 nM radiopeptide, 60 min, room temperature, mean ± SD
T1 construct: BN/GRP receptor-positive MDA-MB-231, MCF7, T47D human breast cancer, and PC3 human prostate cancer lines; host or cells: MDA-MB-231, MCF7, T47D (human breast cancer), PC3 (human prostate cancer); intact cells
Experimental: (§1) The cell binding of ^68Ga-radiolabeled peptides into BN/GRP receptor-positive MDA-MB-231, MCF7, T47D human breast cancer, and PC3 human prostate cancer lines (American Type Culture Collection, Rockville, MD, USA) was performed according to the method described previously. In brief, ∼ 300,000 cells (in 300 μL in low-serum media) were incubated with various amounts of radiopeptides, ranging between 0.1 and 25 nM of peptide (prepared from the serial dilutions of HPLC-purified radiopeptides), in duplicate for 60 min at room temperature. The initial concentrations of ^68Ga-labeled peptides were determined according to a well-established HPLC technique with simultaneous detection by UV absorbance. As the amount of BN peptide in the reaction mixture was too small to be detected by UV absorption at 220 nm, the radioactive peptide chromatograms from the HPLC analysis were compared (with UV chromatograms) with those of known concentrations of the corresponding nonradioactive peptides for the mass determination. Incubation was terminated by dilution with cold saline (300 μL) and the cells were pelleted by centrifugation. The cell pellets was then rapidly washed with cold saline to remove any unbound peptide and centrifuged to collect supernatants. Radioactivity in the cell pellet and the washings was measured in a γ-counter. Non-specific binding was determined in the presence of ~ 200-fold molar excess of unlabeled BN peptide. Specific binding is calculated by subtracting the non-specifically bound radioactivity from that of the total binding. The dissociation constant (Kd) was calculated using a plot of cell bound activity versus the concentration of the radioligand using GraphPad Prism software (GraphPad Software Inc., San Diego, CA, USA).

[3] = molecular target: T2, BN/GRP receptor-positive MCF7 human breast cancer cells (Homo sapiens, UniProt P30550); test: Saturation binding assay on MCF7 cells; conditions: n = 3-5 experiments; for Bmax (apparent number of binding sites per cell): SD < 15%; for Kd: ~300,000 cells, 0.1-25 nM radiopeptide, 60 min, room temperature, mean ± SD
T2 construct: BN/GRP receptor-positive MDA-MB-231, MCF7, T47D human breast cancer, and PC3 human prostate cancer lines; host or cells: MDA-MB-231, MCF7, T47D (human breast cancer), PC3 (human prostate cancer); intact cells
Experimental: as §1

[4] = type: physicochemical
Experimental: For lipophilicity determination, each HPLC-purified radiopeptide (~ 20 μL, ∼ 25 μCi) was added into a glass tube containing an equal volume mixture of n-octanol and water (1 mL each). The samples were vigorously vortexed for 5 min and subsequently centrifuged (5000 rpm, 5 min) to yield two immiscible layers. Duplicate samples (100 μL) from each layer were carefully taken (to avoid cross-contamination between the layers) for radioactivity measurement using a γ-counter. Partition coefficient was determined by the function: partition coefficient = Log10 (radioactivity in octanol layer/radioactivity in aqueous layer).

[5] = Uptake in Intestines (measured without their contents)

Structure (SMILES)	Radio-HPLC tR [1]	dose excreted at 1 h (in vivo)	dose excreted at 2 h (in vivo)	tissue uptake at 1 h (in vivo; Uptake in Blood)	tissue uptake at 2 h (in vivo; Uptake in Blood)	tissue uptake at 1 h (in vivo; [5])	tissue uptake at 2 h (in vivo; [5])	tissue uptake at 1 h (in vivo; Uptake in Kidneys)	tissue uptake at 2 h (in vivo; Uptake in Kidneys)	tissue uptake at 2 h (in vivo; Uptake in Lungs)	tissue uptake at 1 h (in vivo; Uptake in Muscle)	tissue uptake at 2 h (in vivo; Uptake in Muscle)	tissue uptake at 1 h (in vivo; Uptake in Pancreas)	tissue uptake at 2 h (in vivo; Uptake in Pancreas)	tissue uptake at 1 h (in vivo; Uptake in Spleen)	Bmax (apparent number of binding sites per cell) [2]	Kd [2]	Bmax (apparent number of binding sites per cell) [3]	Kd [3]	Log P (octanol/water) [4]	other results
CCCC[C@H](NC(=O)[C@H](Cc1c[nH]cn1)NC(=O)[C@H](CC1CCCCC1)NC(=O)[C@@H](NC(=O)[C@H](C)NC(=O)[C@H](Cc1c[nH]c2ccccc12)NC(=O)[C@H](CCC(N)=O)NC(=O)[C@H](CS)NC(=O)CNC(=O)CNC(=O)CCCCCNC(=O)CN1CCN(CC(=O)O)CCN(CC(=O)O)CCN(CC(=O)O)CC1)C(C)C)C(=O)N[C@@H](CCSC)C(N)=O [^68Ga-DOTA-Ahx-BN Cyclen, metal not drawn] ({DOTA-Ahx}-GGCQWAV[Cha]H[Nle]M-NH2)	18.3 min	64 ± 9.15%	70 ± 8.7%	0.92 ± 0.15 %ID/g	0.51 ± 0.07 %ID/g	0.86 ± 0.12 %ID/g	0.61 ± 0.06 %ID/g	4.93 ± 0.38 %ID/g	4.01 ± 0.41 %ID/g	0.36 ± 0.03 %ID/g	0.23 ± 0.03 %ID/g	0.19 ± 0.02 %ID/g	1.65 ± 0.14 %ID/g	0.82 ± 0.1 %ID/g	0.25 ± 0.02 %ID/g	5.13 × 10^5 sites/cell	0.0127 ± 0.00294 µM	6.90 × 10^5 sites/cell	0.0098 ± 0.00164 µM	–	tissue uptake at 2 h (in vivo; Uptake in Spleen): 0.14 ± 0.01 %ID/g; tissue uptake at 1 h (in vivo; Uptake in Stomach): 0.73 ± 0.13 %ID/g; tissue uptake at 2 h (in vivo; Uptake in Stomach): 0.34 ± 0.05 %ID/g
CCCC[C@H](NC(=O)[C@H](Cc1c[nH]cn1)NC(=O)[C@H](CC1CCCCC1)NC(=O)[C@@H](NC(=O)[C@H](C)NC(=O)[C@H](Cc1c[nH]c2ccccc12)NC(=O)[C@H](CCC(N)=O)NC(=O)[C@H](CS)NC(=O)CNC(=O)CNC(=O)c1ccc(NC(=O)CN2CCN(CC(=O)O)CCN(CC(=O)O)CCN(CC(=O)O)CC2)cc1)C(C)C)C(=O)N[C@@H](CCSC)C(N)=O [^68Ga-DOTA-Abz-BN Tris-, metal not drawn] ({DOTA-4Abz}-GGCQWAV[Cha]H[Nle]M-NH2)	19.3 min	–	–	–	–	–	–	–	–	–	–	–	–	–	–	5.89 × 10^5 sites/cell	–	4.86 × 10^5 sites/cell	–	− 1.04 ± 0.10	–
CCCC[C@H](NC(=O)[C@H](Cc1c[nH]cn1)NC(=O)[C@H](CC1CCCCC1)NC(=O)[C@@H](NC(=O)[C@H](C)NC(=O)[C@H](Cc1c[nH]c2ccccc12)NC(=O)[C@H](CCC(N)=O)NC(=O)[C@H](CS)NC(=O)CNC(=O)CNC(=O)c1ccc(NC(=O)CN2CCN(CC(=O)O)CCN(CC(=O)O)CCN(CC(=O)O)CC2)cc1)C(C)C)C(=O)N[C@@H](CCSC)C(N)=O [^68Ga-DOTA-Abz-BN Cyclen, metal not drawn] ({DOTA-4Abz}-GGCQWAV[Cha]H[Nle]M-NH2)	19.2 min	61 ± 9.93%	78 ± 5.89%	1 ± 0.16 %ID/g	0.55 ± 0.1 %ID/g	0.95 ± 0.27 %ID/g	0.54 ± 0.16 %ID/g	6.03 ± 1 %ID/g	5 ± 0.77 %ID/g	1.15 ± 0.23 %ID/g	0.32 ± 0.06 %ID/g	0.26 ± 0.05 %ID/g	2.94 ± 0.43 %ID/g	1.18 ± 0.31 %ID/g	0.22 ± 0.07 %ID/g	6.09 × 10^5 sites/cell	–	5.12 × 10^5 sites/cell	–	–	tissue uptake at 1 h (in vivo; Uptake in Liver): 2.54 ± 0.46 %ID/g; tissue uptake at 2 h (in vivo; Uptake in Liver): 2 ± 0.37 %ID/g; tissue uptake at 1 h (in vivo; Uptake in Lungs): 2.8 ± 0.55 %ID/g; tissue uptake at 2 h (in vivo; Uptake in Spleen): 0.12 ± 0.02 %ID/g; tissue uptake at 1 h (in vivo; Uptake in Stomach): 1.34 ± 0.29 %ID/g; tissue uptake at 2 h (in vivo; Uptake in Stomach): 0.49 ± 0.12 %ID/g
CCCC[C@H](NC(=O)[C@H](Cc1c[nH]cn1)NC(=O)[C@H](CC1CCCCC1)NC(=O)[C@@H](NC(=O)[C@H](C)NC(=O)[C@H](Cc1c[nH]c2ccccc12)NC(=O)[C@H](CCC(N)=O)NC(=O)[C@H](CS)NC(=O)CNC(=O)CNC(=O)CCC(=O)CNC(=O)CN1CCN(CC(=O)O)CCN(CC(=O)O)CCN(CC(=O)O)CC1)C(C)C)C(=O)N[C@@H](CCSC)C(N)=O [^68Ga-DOTA-ALA-BN Tris-, metal not drawn] ({DOTA}-[X1]GGCQWAV[Cha]H[Nle]M-NH2)	20.3 min	–	–	–	–	–	–	–	–	–	–	–	–	–	–	1.12 × 10^5 sites/cell	0.0147 ± 0.00224 µM	1.05 × 10^5 sites/cell	0.0123 ± 0.00194 µM	− 0.88 ± 0.07	–
CCCC[C@H](NC(=O)[C@H](Cc1c[nH]cn1)NC(=O)[C@H](CC1CCCCC1)NC(=O)[C@@H](NC(=O)[C@H](C)NC(=O)[C@H](Cc1c[nH]c2ccccc12)NC(=O)[C@H](CCC(N)=O)NC(=O)[C@H](CS)NC(=O)CNC(=O)CNC(=O)CCCCCNC(=O)CN1CCN(CC(=O)O)CCN(CC(=O)O)CCN(CC(=O)O)CC1)C(C)C)C(=O)N[C@@H](CCSC)C(N)=O [^68Ga-DOTA-Ahx-BN Tris-, metal not drawn] ({DOTA-Ahx}-GGCQWAV[Cha]H[Nle]M-NH2)	18.3 min	–	–	–	–	–	–	–	–	–	–	–	–	–	–	5.27 × 10^5 sites/cell	0.0116 ± 0.00305 µM	6.22 × 10^5 sites/cell	0.00932 ± 0.0015 µM	− 1.18 ± 0.06	–
